The source of these data is patent US20230242640A1 (OSE IMMUNOTHERAPEUTICS, published 2023).

Numbering of substitutions follows the chain as printed. Numbers in names are those of the source.

B1: anti-SIRPg antibody A1 (antibody, human IgG4 S228P, kappa, V domains shown)
VH: EVQLVESGGGVVRPGGSLRLSCAASGFTFDDYGMSWVRQAPGKGLEWVSGINWNGGSTGYADSVKGRFTISRDNAKNSLYLQMNSLRAEDTAVYYCARWIAKVWGQGTLVTVSR
VL: SSELTQDPAVSVALGQTVRITCQGDSLRSYYASWYQQKPGQAPVLVIYGKNNRPSGIPDRFSGSSSGNTASLTITGAQAEDEADYYCNSRDSSGNHVVFGGGTKLTVLR
notes: human IgG4 S228P, kappa constant; also called VHA1-hFcG4 + VL-CLkappa
B2: anti-SIRPg antibody A8 (antibody, human IgG4 S228P, kappa, V domains shown)
VH: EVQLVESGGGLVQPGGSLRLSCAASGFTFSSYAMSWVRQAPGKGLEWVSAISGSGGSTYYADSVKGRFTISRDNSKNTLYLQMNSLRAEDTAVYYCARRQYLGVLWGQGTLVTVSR
VL: B1 VL
notes: human IgG4 S228P, kappa constant; also called VHA8-hFcG4 + VL-CLkappa
B3: anti-SIRPg antibody A5 (antibody, human IgG4 S228P, kappa, V domains shown)
VH: B1 VH with W99Q, I100M, A101V, V103L
VL: B1 VL
notes: human IgG4 S228P, kappa constant; also called VHA5-hFcG4 + VL-CLkappa

T2 sequence (Q9P1W8 29-360): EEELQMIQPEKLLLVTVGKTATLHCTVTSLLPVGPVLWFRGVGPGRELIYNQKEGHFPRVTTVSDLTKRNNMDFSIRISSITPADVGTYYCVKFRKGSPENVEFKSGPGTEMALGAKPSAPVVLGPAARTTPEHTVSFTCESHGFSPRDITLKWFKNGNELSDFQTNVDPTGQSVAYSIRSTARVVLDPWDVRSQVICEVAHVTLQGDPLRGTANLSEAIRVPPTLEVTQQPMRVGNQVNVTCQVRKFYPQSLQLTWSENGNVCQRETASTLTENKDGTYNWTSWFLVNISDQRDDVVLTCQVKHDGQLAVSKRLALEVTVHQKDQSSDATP
T1 sequence (Q5TFQ8 30-371): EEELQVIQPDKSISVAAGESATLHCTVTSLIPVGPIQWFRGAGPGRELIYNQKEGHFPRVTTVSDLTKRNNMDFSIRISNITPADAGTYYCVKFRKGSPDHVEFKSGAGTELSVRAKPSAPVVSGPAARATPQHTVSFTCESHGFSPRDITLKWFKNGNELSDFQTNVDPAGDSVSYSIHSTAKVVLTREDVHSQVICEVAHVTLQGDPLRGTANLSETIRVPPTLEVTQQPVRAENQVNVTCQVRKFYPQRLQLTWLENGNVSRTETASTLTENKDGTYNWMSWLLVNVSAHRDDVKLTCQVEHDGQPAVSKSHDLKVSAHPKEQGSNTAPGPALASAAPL

One test addresses T1, protein SIRPb-His (human, UniProt Q5TFQ8 30-371).
T1 construct: The methods give no supplier for SIRPb-His; also called hSIRPb-his
Put plainly: ELISA on coated SIRPb-His. An excerpt:
FIG. 2. Binding on SIRPg, SIRPa and SIRPb ELISA assay (protein SIRPa/b/g-His coated and anti-human peroxidase detection). Binding analysis of antibodies A1, A5 and A8, and prior art antibody Kwar23.
B1: the binding result is “no binding”.
As for B2, the binding result is recorded as “no binding”.
B3: the binding result is listed as “no binding”.

The next test has as its target T2, recombinant hSIRPg-His (Sino Biologicals reference 11828-H08H) (human, UniProt Q9P1W8 29-360).
T2 construct: Bought protein; also called protein SIRPg-His; SIRP-gamma
The experiment in a line: ELISA on coated SIRPg-His. The protocol:
For activity ELISA assay, recombinant hSIRPg (Sino Biologicals, Beijing, China; reference 11828-H08H) or hSIRPa (Sino Biologicals, Beijing, China; reference 11612-H08H) was immobilized on plastic at 1 µg/ml (hSIRPg) or 0.5 µg/ml (hSIRPa) in carbonate buffer (pH9.2) and purified antibody were added to measure binding.
(In general: ELISA stands for enzyme-linked immunosorbent assay.)
For the molecule B1, the binding result is listed as “binds”.
Take B2: the binding result is reported as “binds”.
On the same count and under the same terms, the value for B3 was “binds”.
